The source of these data is patent US8894997B2.

The target of test [1] is HA of A/Mexico/4108/2009 virus (influenza A/Mexico/4108/2009 (H1N1) virus).
Test [2] has as its target 1918 HA displayed on virus-like particles, reconstituted 1918 virus or transfected mammalian cells (influenza A/South Carolina/1/18 (H1N1) virus).
In test [3] the target is Recombinant A/South Carolina/1/1918 virus HA (influenza A/South Carolina/1/18 (H1N1) virus).
The target in test [4] is HA of influenza A/USSR/92/77 (H1N1) virus (influenza A/USSR/92/77 (H1N1) virus).
Test [5] deals with HA of influenza A/Weiss/43 (H1N1) virus (influenza A/Weiss/43 (H1N1) virus).
Test [6] deals with HA of influenza A/Swine/Iowa/15/30 (H1N1) virus (influenza A/Swine/Iowa/15/30 (H1N1) virus).
Test [7] has as its target 1918 HA displayed on virus-like particles, reconstituted 1918 virus or transfected mammalian cells (influenza A/South Carolina/1/18 (H1N1) virus). This is another data set of the same source.

For “Normal mouse serum (polyclonal serum or antibody)”, the HAI, reciprocal titer of serum (reciprocal titer) in test [1] and in test [2] was less than 10 each time.

On to mAb 1F1 (antibody), for which the dissociation constant (Kd) (commonly the free concentration of one partner at which half of the binding sites on the other are occupied at equilibrium, for simple one-to-one binding) in test [3] amounted to 5.4 nM. Also, the koff (usually the rate constant with which the complex falls apart) in test [3] was determined as 0.00017 s⁻¹. Besides, the kon – broadly, a measure of how fast the partners come together – in test [3] turned out to be 31000 M⁻¹ s⁻¹. Moreover, the HAI, specific activity in test [1] was greater than 5 µg/mL; in test [2] it was 0.04 µg/mL. Further, the Neut Ab, specific activity in test [1] was greater than 5 µg/mL. Moreover, the Specific HAI activity in test [4] is 0.16 µg/mL; in test [6] it was 0.04 µg/mL; in test [7], 0.08 µg/mL. For the same substance, the values for the specific neutralizing activity in test [4] and in test [5] were 0.88 µg/mL and 1.8 µg/mL, respectively.
